Laboratory results from US20210130491A1 (ONCOTAG DIAGNOSTICS, published 2021).

What was measured:
Assay in all cases: ELISA, protein coated at 1 ug/ml
His-CRS = molecular target: T1, His-CRS (UniProt P49589 1-748)
T1 construct: not shown: His tag
T1 sequence (looked up): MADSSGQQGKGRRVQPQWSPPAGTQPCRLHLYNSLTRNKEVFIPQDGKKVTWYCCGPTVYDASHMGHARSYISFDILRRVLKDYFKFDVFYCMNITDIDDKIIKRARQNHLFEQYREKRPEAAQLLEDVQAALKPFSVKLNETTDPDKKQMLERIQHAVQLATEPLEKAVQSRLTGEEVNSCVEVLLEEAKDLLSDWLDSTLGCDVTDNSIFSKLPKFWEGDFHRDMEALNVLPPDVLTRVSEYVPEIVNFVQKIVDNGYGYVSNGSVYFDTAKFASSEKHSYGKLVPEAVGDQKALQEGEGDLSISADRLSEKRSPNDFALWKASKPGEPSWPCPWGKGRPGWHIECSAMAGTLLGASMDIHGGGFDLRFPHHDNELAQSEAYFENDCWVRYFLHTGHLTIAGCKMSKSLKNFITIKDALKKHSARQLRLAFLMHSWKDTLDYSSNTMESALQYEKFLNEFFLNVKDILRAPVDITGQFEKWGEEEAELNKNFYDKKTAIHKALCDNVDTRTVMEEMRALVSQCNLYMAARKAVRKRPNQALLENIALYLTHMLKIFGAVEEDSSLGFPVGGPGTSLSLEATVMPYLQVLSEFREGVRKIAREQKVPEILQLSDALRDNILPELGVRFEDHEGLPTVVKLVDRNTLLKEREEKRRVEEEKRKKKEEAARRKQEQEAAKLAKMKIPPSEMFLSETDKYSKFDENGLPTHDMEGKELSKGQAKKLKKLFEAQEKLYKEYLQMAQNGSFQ
Experimental: (§1) Each well of 96 well plates (Corning 3690 flat bottom, 96-well half-area plates) was coated with different kinds of ARS proteins (His-MRS, MRS full, DX2 tag free, 34S-DX2, 34S-AIMP2, His-CRS, His-AIMP1, His-GRS, His-WRS, His-KRS) at the concentration of 1 μg/ml. 1E8 and 8A12 antibodies at a concentration of 500 ng/ml were added onto the 96 well plates coated with ARS proteins and allowed to react for 1 hour. Thereafter, HRP-conjugated anti-mouse IgG secondary antibody was added and reacted for 1 hour. ELISA was performed and absorbance was measured at 450 nm. TMB (3,3′,5,5′-tetramethylbenzidine) was used as substrate.

His-AIMP1 = molecular target: T2, His-AIMP1 (UniProt Q12904 1-312, limits assumed)
T2 construct: not shown: His tag
T2 sequence (looked up): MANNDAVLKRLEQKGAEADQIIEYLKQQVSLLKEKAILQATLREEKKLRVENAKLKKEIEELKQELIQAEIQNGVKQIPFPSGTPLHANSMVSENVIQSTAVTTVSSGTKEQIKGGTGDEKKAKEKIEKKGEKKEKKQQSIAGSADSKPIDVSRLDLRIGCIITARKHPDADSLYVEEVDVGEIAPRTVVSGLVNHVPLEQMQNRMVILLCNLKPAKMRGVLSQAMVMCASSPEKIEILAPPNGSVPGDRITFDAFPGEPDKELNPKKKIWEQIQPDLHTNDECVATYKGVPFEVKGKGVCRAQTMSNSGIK
Experimental: as §1

His-GRS = molecular target: T3, His-GRS (UniProt P41250 55-739)
T3 construct: not shown: His tag
T3 sequence (looked up): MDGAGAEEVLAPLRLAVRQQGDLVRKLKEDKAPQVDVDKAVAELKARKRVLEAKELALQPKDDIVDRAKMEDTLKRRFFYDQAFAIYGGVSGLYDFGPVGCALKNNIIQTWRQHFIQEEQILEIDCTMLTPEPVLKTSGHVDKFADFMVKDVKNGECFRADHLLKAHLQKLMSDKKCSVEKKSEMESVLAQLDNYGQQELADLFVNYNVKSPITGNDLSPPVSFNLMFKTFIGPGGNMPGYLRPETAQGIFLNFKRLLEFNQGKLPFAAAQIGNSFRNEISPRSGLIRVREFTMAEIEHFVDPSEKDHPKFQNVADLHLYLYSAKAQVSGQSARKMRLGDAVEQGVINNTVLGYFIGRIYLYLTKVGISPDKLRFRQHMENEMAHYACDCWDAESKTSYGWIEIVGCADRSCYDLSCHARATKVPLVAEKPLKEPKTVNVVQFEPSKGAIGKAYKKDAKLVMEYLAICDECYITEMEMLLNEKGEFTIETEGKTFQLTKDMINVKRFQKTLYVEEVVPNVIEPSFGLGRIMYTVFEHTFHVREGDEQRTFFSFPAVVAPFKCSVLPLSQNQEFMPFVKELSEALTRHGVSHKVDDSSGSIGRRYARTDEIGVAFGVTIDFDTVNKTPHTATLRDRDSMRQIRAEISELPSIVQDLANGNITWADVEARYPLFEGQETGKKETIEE
Experimental: as §1

His-WRS = molecular target: T4, His-WRS (UniProt P23381 1-471, limits assumed)
T4 construct: not shown: His tag
T4 sequence (looked up): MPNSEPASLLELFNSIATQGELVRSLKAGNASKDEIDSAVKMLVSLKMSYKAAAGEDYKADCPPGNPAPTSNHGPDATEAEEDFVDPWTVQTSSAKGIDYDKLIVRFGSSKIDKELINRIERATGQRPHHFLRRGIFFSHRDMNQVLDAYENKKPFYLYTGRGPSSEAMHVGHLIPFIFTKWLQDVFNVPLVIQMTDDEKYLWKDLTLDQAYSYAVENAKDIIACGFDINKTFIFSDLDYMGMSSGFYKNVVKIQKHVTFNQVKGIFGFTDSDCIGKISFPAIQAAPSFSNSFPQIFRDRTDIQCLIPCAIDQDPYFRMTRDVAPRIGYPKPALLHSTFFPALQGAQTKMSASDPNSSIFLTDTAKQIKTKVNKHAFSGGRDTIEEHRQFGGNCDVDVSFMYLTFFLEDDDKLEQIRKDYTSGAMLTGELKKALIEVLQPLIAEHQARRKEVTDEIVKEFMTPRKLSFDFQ
Experimental: as §1

His-KRS = molecular target: T5, His-KRS (UniProt Q15046 1-597)
T5 construct: not shown: His tag
Experimental: as §1

34S-AIMP2 = molecular target: T6, 34S-AIMP2 (UniProt Q13155 1-320)
T6 construct: not shown: '34S' tag or fusion partner
T6 sequence (looked up): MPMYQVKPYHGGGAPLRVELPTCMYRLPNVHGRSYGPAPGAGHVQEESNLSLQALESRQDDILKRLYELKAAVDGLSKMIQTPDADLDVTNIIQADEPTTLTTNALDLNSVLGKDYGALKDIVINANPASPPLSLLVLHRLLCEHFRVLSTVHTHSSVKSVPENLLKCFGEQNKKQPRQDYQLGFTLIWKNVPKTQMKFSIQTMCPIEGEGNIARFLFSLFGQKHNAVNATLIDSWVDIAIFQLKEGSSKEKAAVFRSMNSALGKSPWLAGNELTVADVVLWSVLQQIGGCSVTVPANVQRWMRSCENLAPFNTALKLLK
Experimental: as §1

Measured: binding result

T5 sequence (Q15046 whole entry): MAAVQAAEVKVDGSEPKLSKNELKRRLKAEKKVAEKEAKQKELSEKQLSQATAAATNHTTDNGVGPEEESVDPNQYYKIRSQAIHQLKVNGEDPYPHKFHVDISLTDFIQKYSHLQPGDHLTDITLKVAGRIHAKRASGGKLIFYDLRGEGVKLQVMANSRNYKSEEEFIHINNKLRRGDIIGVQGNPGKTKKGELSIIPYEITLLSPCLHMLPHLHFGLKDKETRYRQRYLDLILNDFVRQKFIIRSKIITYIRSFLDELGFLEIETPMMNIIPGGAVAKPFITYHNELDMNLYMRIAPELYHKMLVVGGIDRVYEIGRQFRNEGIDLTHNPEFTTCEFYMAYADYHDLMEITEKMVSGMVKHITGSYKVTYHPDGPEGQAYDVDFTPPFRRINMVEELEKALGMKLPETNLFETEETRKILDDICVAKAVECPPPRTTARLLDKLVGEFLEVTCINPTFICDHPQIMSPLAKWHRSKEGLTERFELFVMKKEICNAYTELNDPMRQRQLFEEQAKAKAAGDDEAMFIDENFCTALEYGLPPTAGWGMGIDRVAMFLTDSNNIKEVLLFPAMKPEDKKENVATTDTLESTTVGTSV

B1: 8A12 antibody (8A12 IgG) (antibody, V domains shown)
VH: DVKLQESGPGLVKPSQSLSLTCTVTGYSITSEYAWTWIRQFPGNKLEWMGYINYNGNTNLNPSLKSRISIIRDTSKNQFFLQLNSVTTEDTATYYCARSLWPRGWFAYWGQGTLVTVSA
VL: DIQMTQSPSSMYASLGERVTITCKASQDINSYLSWFQQKPGKSPKTLMYRANRLVDGVPSRFSGSGSGQDYSLTISSLEYEDMGIYYCLQYDEFPRTFGGGTKLEIKA
notes: Mouse monoclonal from hybridoma clone 8A12; also called 8Al2; anti-MRS antibody (8A12)
no binding (tested: 500 ng/ml): all assays above

B2: 1E8 antibody (1E8 IgG) (antibody, V domains shown)
VH: DVKLQESGPGLVNPSQSLSLTCTVTGYSITSDYAWNWIRQFPGNKLEWMGYISYSGRTSYKSSLKSRISITRDTSKNQFFLELNSVTTEDTATYYCARDYGNFVGYFDVWGAGTTVTVSS
VL: DIVMTQSPSSLAVSVGEKVTMSCKSSQSLLYSSNQKNYLAWYQQKPGQSPKLLIYWASTRESGVPDRFTGSGSGTEFTLTISSVKAEDLAVYYCQQYYSYPTFGGGTKLEIKA
notes: Mouse monoclonal from hybridoma clone 1E8; also called IE8; anti-MRS antibody (1E8)
no binding (tested: 500 ng/ml): all assays above
